Results: patent CN106117358A (UNIV SUN YAT SEN, dated 2016)

Tests used:
[1] = target: CD3 on Jurkat cells (UniProt P07766); assay: flow cytometry, culture supernatant on Jurkat cells (negative control)
[2] = target: T1, CD3-His蛋白(MP-5) (UniProt P07766 23-126); assay: BLI (Octet RED96), off-rate screening; sdAb-SASA from expression medium captured on BSA-coated biosensor, 100 nM CD3 in solution, 1:1 Langmuir fit, 30°C
T1 construct: Immunogen and panning antigen; the construct is not defined; also called CD3蛋白; not shown: His tag
T1 sequence (P07766 23-126): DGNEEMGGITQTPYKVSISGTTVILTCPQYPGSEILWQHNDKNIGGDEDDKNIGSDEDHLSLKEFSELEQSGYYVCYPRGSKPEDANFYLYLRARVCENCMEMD

[3] = target: CD3 on Jurkat cells (UniProt P07766); assay: flow cytometry, culture supernatant on Jurkat cells

Molecule | MFI [1] | koff [2] | MFI [3]
NC-sdAb (VHH) | 115 | – | –
A30228 (VHH, Llama sdAb from a phage display library; Tested as sdAb-SASA protein in E. coli expression medium / culture supernatant (FASEBA format), not purified; 1; also called 抗CD3单域抗体; sdAb; not shown: SASA fusion partner of the pFASEBA vector (sdAb-SASA protein)) VHH: QVKLEESGGGLVQAGDSLTLSCAASGRTFDTMGWFRQAPGKEREFVAAVRWSSGNTYYGNTVKGRFTISRDTATNTVYLEMNSLKHEDTAVYYCAARLAGRGAADHWGQGTQVTVSS | – | 7.61e-05 s⁻¹ | 240
A30311 (VHH, Llama sdAb from a phage display library; Tested as sdAb-SASA protein in E. coli expression medium / culture supernatant (FASEBA format), not purified; 3; also called 抗CD3单域抗体; sdAb; not shown: SASA fusion partner of the pFASEBA vector (sdAb-SASA protein)) VHH: QVKLEESGGGLVQAGGSLRLSCAASGRTFDTMGWFRQAPGKEREFVAAVRWSSGNTYYGNTVKGRFTISRDTATNTVYLQMNSLKHEDTAVYYCAARLGGRGAADHWGQGTQVTVSS | – | 0.000153 s⁻¹ | 299
